From patent US20210085785A1 (TRUEBINDING, published 2021)
Positions count from the first letter of the chain named.

B1: mab5 (antibody, V domains shown)
VH: QVQLVQSGAEVKKPGASVKVSCKASGYTFTSYYLHWVRQAPGQRLEWMGWIYPGNVNTKYNQKFQGRVTITADKSASTAYMELSSLRSEDTAVYFCAREELGGFAYWGQGTLVTVSS
VL: DIQMTQSPSSLSASVGNRVTITCRASQDISNYLSWYQQKPGKVPKLLIYYTSILHSGVPSRFSGSGSGTDYSLTISSLQPEDVATYFCQQGNTLPRTFGQGTKVEIK
B2: mab4 (IMT300) (antibody, V domains shown)
VH: B1 VH
VL: B1 VL with L11V, V15I, N17D, V43A, S72T, V83F, Q100G
notes: also called hLRIG1 mAb IMT300; Immutics PP14384
B3: mab6 (antibody, V domains shown)
VH: B1 VH with M48I, Q62E, I70L
VL: B1 VL with L11V, V15I, N17D, V43A, S72T, V83F, Q100G
notes: also called Immutics PP14387

Key:
[1] = biological target: T1, Purified human LRIG1 extracellular domain fused to a HIS tag (R&D Systems) (human) (UniProt Q96JA1); experiment: biosensor binning; saturating mab5 20 ug/mL, competitor mab6 5 ug/mL
T1 sequence: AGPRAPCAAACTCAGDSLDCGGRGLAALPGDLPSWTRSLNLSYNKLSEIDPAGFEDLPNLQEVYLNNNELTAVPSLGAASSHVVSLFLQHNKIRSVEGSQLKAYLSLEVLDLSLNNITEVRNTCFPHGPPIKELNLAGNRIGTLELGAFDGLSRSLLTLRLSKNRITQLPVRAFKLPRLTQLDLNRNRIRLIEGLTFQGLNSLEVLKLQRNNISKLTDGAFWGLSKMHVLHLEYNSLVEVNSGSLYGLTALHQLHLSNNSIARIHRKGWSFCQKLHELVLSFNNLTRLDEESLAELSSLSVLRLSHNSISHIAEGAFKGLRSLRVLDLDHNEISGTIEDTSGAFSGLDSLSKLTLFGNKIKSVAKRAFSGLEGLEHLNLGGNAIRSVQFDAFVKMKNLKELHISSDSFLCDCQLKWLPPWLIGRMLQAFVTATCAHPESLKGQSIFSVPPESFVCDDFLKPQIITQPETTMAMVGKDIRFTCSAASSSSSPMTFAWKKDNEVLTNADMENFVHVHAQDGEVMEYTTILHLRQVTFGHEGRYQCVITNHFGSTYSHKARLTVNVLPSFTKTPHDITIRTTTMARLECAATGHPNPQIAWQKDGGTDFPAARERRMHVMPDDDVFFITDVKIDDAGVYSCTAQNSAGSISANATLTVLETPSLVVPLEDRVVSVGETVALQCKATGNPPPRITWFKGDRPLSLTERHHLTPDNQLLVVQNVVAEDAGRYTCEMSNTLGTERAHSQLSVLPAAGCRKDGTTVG

[2] = biological target: T1, Purified human LRIG1 extracellular domain fused to a HIS tag (R&D Systems) (human); experiment: biosensor binning; saturating mab5 20 ug/mL, competitor mab2 5 ug/mL
[3] = biological target: T1, Purified human LRIG1 extracellular domain fused to a HIS tag (R&D Systems) (human); experiment: biosensor binning; saturating mab5 20 ug/mL, competitor mab4 5 ug/mL
[4] = biological target: T1, Purified human LRIG1 extracellular domain fused to a HIS tag (R&D Systems) (human); experiment: biosensor binning; saturating mab5 20 ug/mL, competitor mab5 5 ug/mL
[5] = biological target: T1, Purified human LRIG1 extracellular domain fused to a HIS tag (R&D Systems) (human); experiment: blocking ELISA: LRIG1 ECD-His coated, antibody 3.3 ug/ml, oligomerized VISTA 50 nM, avidin-HRP
[6] = biological target: T2, Purified human LRIG1 extracellular domain fused to a HIS tag (R&D Systems) (human, UniProt Q96JA1 35-794); experiment: as above
T2 construct: also called human LRIG1-His; hLRIG1-His; not shown: HIS tag
T2 sequence: T1 sequence
Procedure: To identify LRIG1-targeted antibodies with the ability to block the interaction of LRIG1 and VISTA, purified LRIG1 and VISTA proteins were incubated in the presence of various LRIG1-targeted or control antibodies, or without antibody, and protein interaction was evaluated by ELISA. Purified human LRIG1 extracellular domain fused to a HIS tag (R&D Systems) was diluted in phosphate buffered saline (PBS) (Corning) to a concentration of 3 μg/ml and 100 ul was added to each well of a 96-well ELISA plate (Thermo Fisher, 44-2404-21). After incubating the plate at 4° C. overnight, the plate was washed three times with 300 μl of PBS with 0.05% TWEEN (VWR) (PBST) per well. The plate was then blocked for an hour with 200 μl of 2% bovine serum albumin (BSA) (Sigma) in PBST per well at room temperature with gentle rocking. Thereafter, the 2% BSA in PBST was removed and 50 ul of antibody at 3.3 ug/ml in 2% BSA in PBST was added to the wells. The plate was incubated for 10 minutes at room temperature with gentle rocking. Afterwards, 50 nM of oligomerized VISTA in 100 ul PBS buffer was added per well. […] The plate was read using a plate reader (Molecular Devices) at absorbance of 450 nm. Percent blockade of LRIG1-VISTA interaction was calculated as the fraction of signal obtained in each experimental samples of the no antibody sample less background signal.

Binder | competition matrix entry (not explained) [1] | competition matrix entry (not explained) [2] | competition matrix entry (not explained) [3] | competition matrix entry (not explained) [4] | percent of LRIG1-VISTA binding relative to an unblocked sample [5] [%] | percent of LRIG1-VISTA binding relative to an unblocked sample [6] [%]
B1 | 0 | 0 | 0 | 0 | 60 | –
B2 | – | – | – | – | – | 44
B3 | – | – | – | – | – | 43
